The values below come from the supplement of paper PMC10567573.

Sequences and labels used below:
B1: MLH1 (parent)
chain: YAHQMVRTDSREQKLDAFLQPLSK
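Also: lentivirally expressed fusions sorted by FACS into six bins by GFP to DsRed ratio, PSI derived from sequencing read proportions per bin multiplied by bin number.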

The series covers variants of B1. The experiment in a line: protein stability index of a GFP-peptide fusion (GPS, HEK-293T) (PSI 1-6); higher = more stable. To be noted: c terminus: a fixed tail appended.
Turning to YAHQMVRTDSRCQKLDAFLQPLSK [E12C], the protein stability index was found to be 2.19. Next, YAHQMVRTDSRLQKLDAFLQPLSK [E12L]: 2. For the variant YAHQMVRTDSRFQKLDAFLQPLSK [E12F], the protein stability index is 1.74. Next, YAHQMVRTDSRDQKLDAFLQPLSK [E12D]: 3.18. With YAHQMVRTDSRTQKLDAFLQPLSK [E12T] the figure was 2.29. Regarding YAHQMVRTDSRIQKLDAFLQPLSK [E12I], the protein stability index came to 1.82.

In the case of YAHQMVRTDSRYQKLDAFLQPLSK [E12Y], the protein stability index came to 1.98. With YAHHMVRTDSREQKLDAFLQPLSK [Q4H] the figure was 2.04; with YAHTMVRTDSREQKLDAFLQPLSK [Q4T], 2.16. With YAHIMVRTDSREQKLDAFLQPLSK [Q4I] the figure was 2.16; with YAHAMVRTDSREQKLDAFLQPLSK [Q4A], 2.1. With YAHWMVRTDSREQKLDAFLQPLSK [Q4W] the figure was 2.7; with YAHRMVRTDSREQKLDAFLQPLSK [Q4R], 1.93; with YAHFMVRTDSREQKLDAFLQPLSK [Q4F], 2. With YAHGMVRTDSREQKLDAFLQPLSK [Q4G], the protein stability index is 2. Next, YAHKMVRTDSREQKLDAFLQPLSK [Q4K]: 2. Next, YAHMMVRTDSREQKLDAFLQPLSK [Q4M]: 2.51. Next, YAHVMVRTDSREQKLDAFLQPLSK [Q4V]: 2.37; YAHLMVRTDSREQKLDAFLQPLSK [Q4L]: 2.37; YAHCMVRTDSREQKLDAFLQPLSK [Q4C]: 2.07. With YAHSMVRTDSREQKLDAFLQPLSK [Q4S], the protein stability index is 2.42. Next, YAHQMVRTDSREQELDAFLQPLSK [K14E]: 2.78. YAHQMVRTDSREQDLDAFLQPLSK [K14D]: the protein stability index stood at 2.46.

On to YAHQMVRTDSREQCLDAFLQPLSK [K14C], for which the protein stability index turned out to be 2.08. With YAHQMVRTDSREQALDAFLQPLSK [K14A] the figure was 2.84; with YAHQMVRTDSGEQKLDAFLQPLSK [R11G], 2.78. Next, YAHQMVRTDSWEQKLDAFLQPLSK [R11W]: 1.33; YAHQMVRTDSTEQKLDAFLQPLSK [R11T]: 3.34. Next, YAHQMVRTDSCEQKLDAFLQPLSK [R11C]: 2.59; YAHQMVRTDSPEQKLDAFLQPLSK [R11P]: 2.46. As for YAHQMVRTDSQEQKLDAFLQPLSK [R11Q], the protein stability index was found to be 2.84. With YAHQMVRTDSFEQKLDAFLQPLSK [R11F] the figure was 2.51; with YAHQMVRTDSIEQKLDAFLQPLSK [R11I], 2.1. With YAHQMVRTDSLEQKLDAFLQPLSK [R11L] the figure was 1.95. Next, YAHQMVFTDSREQKLDAFLQPLSK [R7F]: 2.18; YAHQMVPTDSREQKLDAFLQPLSK [R7P]: 3.06. For the variant YAHQMVGTDSREQKLDAFLQPLSK [R7G], the protein stability index was 1.96. With YAHQMVKTDSREQKLDAFLQPLSK [R7K] the figure was 2.74; with YAHQMVVTDSREQKLDAFLQPLSK [R7V], 2.12. Next, YAHQMVWTDSREQKLDAFLQPLSK [R7W]: 2.32; YAHQMVITDSREQKLDAFLQPLSK [R7I]: 2.57; YAHQMVETDSREQKLDAFLQPLSK [R7E]: 3.17. YAHQMVNTDSREQKLDAFLQPLSK [R7N]: the protein stability index turned out to be 2.98. Next, YAHQMVCTDSREQKLDAFLQPLSK [R7C]: 1.59. With YAHQMVRFDSREQKLDAFLQPLSK [T8F] the figure was 2.12; with YAHQMVRCDSREQKLDAFLQPLSK [T8C], 2.27; with YAHQMVRLDSREQKLDAFLQPLSK [T8L], 2.43. Next, YAHQMVRPDSREQKLDAFLQPLSK [T8P]: 2.19. Regarding YAHQMVRIDSREQKLDAFLQPLSK [T8I], the protein stability index came to 2.49. On to YAHQMVRDDSREQKLDAFLQPLSK [T8D], for which the protein stability index came to 2.78. Next, YAHQMVRHDSREQKLDAFLQPLSK [T8H]: 2.04. Next, YAHQMVRSDSREQKLDAFLQPLSK [T8S]: 2.71; YAHQMVRWDSREQKLDAFLQPLSK [T8W]: 1.83; YAHQMVRGDSREQKLDAFLQPLSK [T8G]: 2.69.

Consider YAHQMKRTDSREQKLDAFLQPLSK [V6K], for which the protein stability index turned out to be 2.53.

As to YAHQMQRTDSREQKLDAFLQPLSK [V6Q], the protein stability index was 2.71.

On to YAHQMYRTDSREQKLDAFLQPLSK [V6Y], for which the protein stability index was 2.42. Next, YAHQMDRTDSREQKLDAFLQPLSK [V6D]: 3.03.

As for YAHQMIRTDSREQKLDAFLQPLSK [V6I], the protein stability index worked out at 2.43. YAHQMLRTDSREQKLDAFLQPLSK [V6L]: the protein stability index is 2.48. Next, YAHQMSRTDSREQKLDAFLQPLSK [V6S]: 2.97.

Turning to YAHQMFRTDSREQKLDAFLQPLSK [V6F], the protein stability index turned out to be 2.19.

In the case of YAHQMMRTDSREQKLDAFLQPLSK [V6M], the protein stability index was 2.29.

On to YAHQMTRTDSREQKLDAFLQPLSK [V6T], for which the protein stability index is 2.7. With YAHQMVRTDSREFKLDAFLQPLSK [Q13F] the figure was 1.72; with YAHQMVRTDSRECKLDAFLQPLSK [Q13C], 1.54. As to YAHQMVRTDSRENKLDAFLQPLSK [Q13N], the protein stability index turned out to be 2.48. Next, YAHQMVRTDSRERKLDAFLQPLSK [Q13R]: 2.78. With YAHQMVRTDSREHKLDAFLQPLSK [Q13H] the figure was 2.04. Next, YAHQMVRTDSRETKLDAFLQPLSK [Q13T]: 2.7; YAHQMVRTDSREMKLDAFLQPLSK [Q13M]: 2.06.

Take YAHQMVRTDSREWKLDAFLQPLSK [Q13W]: the protein stability index was found to be 2.18. In the case of YAHQMVRTDSREGKLDAFLQPLSK [Q13G], the protein stability index stood at 2.32. Take YAHQMVRTDSREIKLDAFLQPLSK [Q13I]: the protein stability index was found to be 1.94. Next, YAFQMVRTDSREQKLDAFLQPLSK [H3F]: 2.19; YADQMVRTDSREQKLDAFLQPLSK [H3D]: 3.05. Next, YAYQMVRTDSREQKLDAFLQPLSK [H3Y]: 2; YAIQMVRTDSREQKLDAFLQPLSK [H3I]: 2.5; YANQMVRTDSREQKLDAFLQPLSK [H3N]: 3.13. Next, YALQMVRTDSREQKLDAFLQPLSK [H3L]: 2.19. YAKQMVRTDSREQKLDAFLQPLSK [H3K]: the protein stability index was found to be 2.75. Turning to YACQMVRTDSREQKLDAFLQPLSK [H3C], the protein stability index came to 2.01. Next, YAGQMVRTDSREQKLDAFLQPLSK [H3G]: 2.15; YAHQMVRTDNREQKLDAFLQPLSK [S10N]: 2.43; YAHQMVRTDRREQKLDAFLQPLSK [S10R]: 2.51. Next, YAHQMVRTDQREQKLDAFLQPLSK [S10Q]: 2.78; YAHQMVRTDLREQKLDAFLQPLSK [S10L]: 1.72; YAHQMVRTDAREQKLDAFLQPLSK [S10A]: 2.97. With YAHQMVRTDEREQKLDAFLQPLSK [S10E] the figure was 2.79; with YAHQMVRTDIREQKLDAFLQPLSK [S10I], 3; with YAHQMVRTDMREQKLDAFLQPLSK [S10M], 2.53. In the case of YAHQMVRTDTREQKLDAFLQPLSK [S10T], the protein stability index is 2.39. With YAHQMVRTDGREQKLDAFLQPLSK [S10G] the figure was 2.71; with YAHQMVRTDWREQKLDAFLQPLSK [S10W], 1.66.
